Experimental data as given in patent US20250296992A1 (Genmab, published 2025).

Experiments:
human SLITRK6 on cells [1] = target: T1, human SLITRK6 on cells (human, UniProt Q9H5Y7 27-841); assay: flow cytometry on 293F-SLITRK6-C9 cells
T1 construct: whole, on cells
Experimental: (§1) The binding activity of mAbs and ADCs was evaluated by flow cytometer (Beckman, Cytoflex). Specifically, cells were incubated with 50 μL of mAbs or ADCs in series dilutions in PBS containing 1% BSA at 4° C. for 30 min. The cells were washed twice with PBS containing 1% BSA, stained with PE-conjugated anti human Fc in PBS containing 1% BSA and then incubated at 4° C. for 20 min. After that the cells were washed twice with PBS and analyzed by a flow cytometer.

[2] = target: T2, human SLITRK6 extracellular domain linked to his tag (human, UniProt Q9H5Y7 27-608); assay: BLI binning on huSLITRK6-his; Ab1 = row antibody first, then Ab2 (competitor) = Sirtratumab
T2 construct: extracellular domain; also called huSLITRK6; Hu SLITRK6; not shown: his tag

human SLITRK6 on cells [3] = target: T1, human SLITRK6 on cells; assay: flow cytometry on RT4 cells
Experimental: (§2) The binding activity of mAbs was evaluated by flow cytometer (Beckman, Cytoflex). Specifically, cells were incubated with 50 μL of mAbs or ADCs in series dilutions in PBS containing 1% BSA at 4° C. for 30 minutes. The cells were washed twice with PBS containing 1% BSA, stained with PE-conjugated anti human Fc in PBS containing 1% BSA and then incubated at 4° C. for 20 min. After that the cells were washed twice with PBS and analyzed by a flow cytometer.

human SLITRK6 on cells [4] = target: T1, human SLITRK6 on cells; assay: flow cytometry on SW780 cells, PE-conjugated anti-human Fc
Experimental: (§3) Specifically, cells were incubated with 50 μL of mAbs or ADCs in series dilutions in PBS containing 1% BSA at 4° C. for 30 min. The cells were washed twice with PBS containing 1% BSA, stained with PE-conjugated anti human Fc in PBS containing 1% BSA and then incubated at 4° C. for 20 min. After that the cells were washed twice with PBS and analyzed by a flow cytometer.

human SLITRK6 on cells [5] = target: T1, human SLITRK6 on cells; assay: flow cytometry on CHP-212 cells
Experimental: as §1

mouse SLITRK6 = target: T3, mouse SLITRK6 (mouse, UniProt Q8C110 23-609); assay: BLI; antigen-his on anti-his tips, antibody or ADC as analyte; 1:1 fit
T3 construct: extracellular domain; also called Mu SLITRK6; not shown: his tag
T3 sequence (Q8C110 23-609): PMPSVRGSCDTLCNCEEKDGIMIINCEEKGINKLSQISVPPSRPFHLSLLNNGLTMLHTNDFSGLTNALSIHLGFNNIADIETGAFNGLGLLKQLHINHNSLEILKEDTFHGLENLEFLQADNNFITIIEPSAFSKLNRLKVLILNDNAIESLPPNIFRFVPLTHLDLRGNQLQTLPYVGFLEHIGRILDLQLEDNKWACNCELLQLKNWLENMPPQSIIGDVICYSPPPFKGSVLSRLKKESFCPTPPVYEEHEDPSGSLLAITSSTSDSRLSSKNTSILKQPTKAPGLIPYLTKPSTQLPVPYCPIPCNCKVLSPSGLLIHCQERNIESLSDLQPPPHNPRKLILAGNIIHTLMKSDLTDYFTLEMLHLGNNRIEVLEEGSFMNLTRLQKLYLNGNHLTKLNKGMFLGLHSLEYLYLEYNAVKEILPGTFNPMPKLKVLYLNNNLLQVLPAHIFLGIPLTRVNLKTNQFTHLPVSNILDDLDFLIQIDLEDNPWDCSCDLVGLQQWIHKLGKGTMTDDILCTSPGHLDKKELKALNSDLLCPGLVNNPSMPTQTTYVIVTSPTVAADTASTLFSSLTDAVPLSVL

[6] = target: T2, human SLITRK6 extracellular domain …; assay: as above
Experimental: (§4) Binding kinetic of antibody-antigen was characterized by the bio-layer interferometry (BLI). 100 nM of SLITRK6′ extracellular domain linked to his tag was immobilized on anti-his biosensor tips (Fortebio). The sensors were rinsed with the buffer (50 mM Tris-AcOH, pH 6 or 7.5, 0.05% v/v surfactant P20) for 10 min to remove the unbound molecules, then dipped in the antibody solutions at different concentrations for 180 seconds and interspersed by a rinsing step in the buffer solution for 300 seconds. Binding affinity was calculated using ForteBio Data Acquisition 6.3 software (ForteBio) and was derived by fitting the kinetic data to a 1:1 Langmuir binding model utilizing global fitting algorithms. The dissociation or association equilibrium constant KD was calculated from the binding rate constants as KD=koff/kₒₙ (where koff and kₒₙ represent the dissociation kinetic constant and the association kinetic constant, respectively).

rat SLITRK6 [7] = target: T4, rat SLITRK6 (rat, UniProt D3ZP44 27-607); assay: as above
T4 construct: extracellular domain; not shown: his tag

[8] = target: T5, cynomolgus monkey SLITRK6 extracellular domain linked to his tag (cynomolgus monkey, UniProt G7PVK4 27-608); assay: as above
T5 construct: extracellular domain; also called cynoSLITRK6; Cyno SLITRK6; not shown: his tag

human SLITRK6 on cells [9] = target: T1, human SLITRK6 on cells; assay: flow cytometry on RT4 cells, PE-conjugated anti-human Fc
Experimental: as §3

human SLITRK6 on cells [10] = target: T1, human SLITRK6 on cells; assay: flow cytometry on SW780 cells, PE-conjugated anti-human Fc; remark: listed apart in the source
Experimental: as §1

[11] = target: T2, human SLITRK6 extracellular domain …; assay: ELISA, coated antigen
Experimental: (§5) First, a purified antigen was adsorbed to the surface of a PVC 96-well plate for ELISA at 4° C. overnight, the plate was washed twice by filling the wells with 350 μL TBST buffer (200 mM Sodium Chloride, 20 mM Tris, 0.05% Tween-20, pH 8). The surface of the solid phase having no antigen adsorbed thereto was covered with BSA. After washing the surface with TBST buffer, the surface was incubated with a serially diluted mAb as a primary antibody to bind to the antigen for 1 hour at room temperature. The plate was washed twice with TBST buffer and added an antibody labeled with an enzyme as a secondary antibody to incubate for 1 hour at room temperature.

rat SLITRK6 [12] = target: T4, rat SLITRK6; assay: ELISA, coated antigen
Experimental: as §5

[13] = target: T5, cynomolgus monkey SLITRK6 extracellular …; assay: ELISA, coated antigen
Experimental: as §5

human SLITRK6 on cells [14] = target: T1, human SLITRK6 on cells; assay: flow cytometry on CHP-212 cells, PE-conjugated anti-human Fc
Experimental: as §3

[15] = target: T2, human SLITRK6 extracellular domain …; assay: BLI binning on huSLITRK6-his; Ab1 = row antibody first, then Ab2 (competitor) = hu1H2-13
Experimental: (§6) Epitope binning was characterized by the bio-layer interferometry (BLI). 100 nM of human SLITRK6′ extracellular domain linked to his tag was immobilized on anti-his biosensor tips (Fortebio). The sensors were rinsed with the buffer (50 mM Tris-AcOH, pH 6 or 7.5, 0.05% v/v surfactant P20) for 30 seconds to remove the unbound molecules, then dipped in the 100 nM of antibody 1 solutions for 180 seconds and interspersed by a rinsing step in the buffer solution for 300 seconds. After that, the sensors were dipped in the 100 nM of antibody 2 solutions. The epitope cluster was calculated using ForteBio Data Acquisition 6.3 software.

human SLITRK6 on cells [16] = target: T1, human SLITRK6 on cells; assay: flow cytometry on SW780 cells
Experimental: as §2

[17] = target: T2, human SLITRK6 extracellular domain …; assay: BLI; antigen ECD-his on anti-his tips, antibody as analyte; 1:1 fit;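 note: antibody at several concentrations, 180 s association then 300 s dissociation in Tris buffer at pH 6 or 7.5, rate constants from global fitting, KD computed as koff/kon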
Experimental: (§7) Binding kinetic of antibody-antigen was characterized by the bio-layer interferometry (BLI). 100 nM of SLITRK6′ extracellular domain linked to his tag was immobilized on anti-his biosensor tips (Fortebio). The sensors were rinsed with the buffer (50 mM Tris-AcOH, pH 6 or 7.5, 0.05% v/v surfactant P20) for 10 min to remove the unbound molecules, then dipped in the antibody solutions at different concentrations for 180 seconds and interspersed by a rinsing step in the buffer solution for 300 seconds. Binding affinity was calculated using ForteBio Data Acquisition 6.3 software (ForteBio) and was derived by fitting the kinetic data to a 1:1 Langmuir binding model utilizing global fitting algorithms. The dissociation or association equilibrium constant KD was calculated from the binding rate constants as KD=koff/kₒₙ(where koff and kₒₙ represent the dissociation kinetic constant and the association kinetic constant, respectively).

[18] = target: T5, cynomolgus monkey SLITRK6 extracellular …; assay: as above
Experimental: as §7

[19] = target: T2, human SLITRK6 extracellular domain …; assay: BLI binning on huSLITRK6-his; Ab1 = row antibody first, then Ab2 (competitor) = phA108
Experimental: as §6

human SLITRK6 on cells [20] = target: T1, human SLITRK6 on cells; assay: flow cytometry on RT4 cells, PE-conjugated anti-human Fc; remark: listed apart in the source
Experimental: as §1

human SLITRK6 on cells [21] = target: T1, human SLITRK6 on cells; assay: flow cytometry on 293F-huSLITRK6-C9 cells
Experimental: The binding activity of mAbs was evaluated by flow cytometer (Beckman, Cytoflex). Specifically, cells were incubated with 50 μL of mAbs or ADCs in series dilutions in PBS containing 1% BSA at 4° C. for 30 min. The cells were washed twice with PBS containing 1% BSA, stained with PE-conjugated anti human Fc in PBS containing 1% BSA and then incubated at 4° C. for 20 min. After that the cells were washed twice with PBS and analyzed by a flow cytometer.

[22] = target: T2, human SLITRK6 extracellular domain …; assay: BLI binning on huSLITRK6-his; Ab1 = row antibody first, then Ab2 (competitor) = hu1H2-03
Experimental: as §6

human SLITRK6 on cells [23] = target: T1, human SLITRK6 on cells; assay: flow cytometry on SW780 cells; remark: listed apart in the source
Experimental: as §1

human SLITRK6 on cells [24] = target: T1, human SLITRK6 on cells; assay: flow cytometry on 293F-huSLITRK6 cells, PE-conjugated anti-human Fc
Experimental: as §3

human SLITRK6 on cells [25] = target: T1, human SLITRK6 on cells; assay: flow cytometry on CHP-212 cells; remark: listed apart in the source
Experimental: as §2

[26] = target: T2, human SLITRK6 extracellular domain …; assay: BLI binning on huSLITRK6-his; Ab1 = row antibody first, then Ab2 (competitor) = hu14G1-03
Experimental: as §6

human SLITRK6 on cells [27] = target: T1, human SLITRK6 on cells; assay: flow cytometry on RT4 cells; remark: listed apart in the source
Experimental: as §1

human SLITRK6 on cells [28] = target: T1, human SLITRK6 on cells; assay: flow cytometry on RT112/84 cells
Experimental: as §2

[29] = target: T2, human SLITRK6 extracellular domain …; assay: BLI binning on huSLITRK6-his; Ab1 = row antibody first, then Ab2 (competitor) = phA290
Experimental: as §6

human SLITRK6 on cells [30] = target: T1, human SLITRK6 on cells; assay: flow cytometry on RT112/84 cells, PE-conjugated anti-human Fc
Experimental: as §3

rat SLITRK6 [31] = target: T4, rat SLITRK6; assay: BLI, antigen on anti-his tips
Experimental: as §4

human SLITRK1 = target: T6, human SLITRK1 (human, UniProt Q96PX8 18-622, limits assumed); assay: BLI, antigen on anti-his tips
T6 construct: The method text describes only the SLITRK6 ECD-his construct; also called Hu SLITRK1
T6 sequence (looked up): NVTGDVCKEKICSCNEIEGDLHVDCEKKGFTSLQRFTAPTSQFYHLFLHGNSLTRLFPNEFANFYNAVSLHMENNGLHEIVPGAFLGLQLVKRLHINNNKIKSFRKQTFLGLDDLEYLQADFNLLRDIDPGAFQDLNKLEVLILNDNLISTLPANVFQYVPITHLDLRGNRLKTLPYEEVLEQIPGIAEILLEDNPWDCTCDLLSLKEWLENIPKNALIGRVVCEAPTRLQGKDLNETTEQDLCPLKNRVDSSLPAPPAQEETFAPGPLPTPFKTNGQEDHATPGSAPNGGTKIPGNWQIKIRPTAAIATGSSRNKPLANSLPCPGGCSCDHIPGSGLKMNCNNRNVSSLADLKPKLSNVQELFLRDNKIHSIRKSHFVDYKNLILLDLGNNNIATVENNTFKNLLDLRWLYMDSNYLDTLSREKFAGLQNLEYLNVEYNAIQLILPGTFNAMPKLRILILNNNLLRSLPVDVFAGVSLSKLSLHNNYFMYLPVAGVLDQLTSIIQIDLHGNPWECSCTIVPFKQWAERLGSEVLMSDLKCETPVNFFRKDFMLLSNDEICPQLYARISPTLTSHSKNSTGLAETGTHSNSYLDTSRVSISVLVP
Experimental: as §4

human SLITRK4 = target: T7, human SLITRK4 (human, UniProt Q8IW52 19-618, limits assumed); assay: BLI, antigen on anti-his tips
T7 construct: The method text describes only the SLITRK6 ECD-his construct; also called Hu SLITRK4
T7 sequence (looked up): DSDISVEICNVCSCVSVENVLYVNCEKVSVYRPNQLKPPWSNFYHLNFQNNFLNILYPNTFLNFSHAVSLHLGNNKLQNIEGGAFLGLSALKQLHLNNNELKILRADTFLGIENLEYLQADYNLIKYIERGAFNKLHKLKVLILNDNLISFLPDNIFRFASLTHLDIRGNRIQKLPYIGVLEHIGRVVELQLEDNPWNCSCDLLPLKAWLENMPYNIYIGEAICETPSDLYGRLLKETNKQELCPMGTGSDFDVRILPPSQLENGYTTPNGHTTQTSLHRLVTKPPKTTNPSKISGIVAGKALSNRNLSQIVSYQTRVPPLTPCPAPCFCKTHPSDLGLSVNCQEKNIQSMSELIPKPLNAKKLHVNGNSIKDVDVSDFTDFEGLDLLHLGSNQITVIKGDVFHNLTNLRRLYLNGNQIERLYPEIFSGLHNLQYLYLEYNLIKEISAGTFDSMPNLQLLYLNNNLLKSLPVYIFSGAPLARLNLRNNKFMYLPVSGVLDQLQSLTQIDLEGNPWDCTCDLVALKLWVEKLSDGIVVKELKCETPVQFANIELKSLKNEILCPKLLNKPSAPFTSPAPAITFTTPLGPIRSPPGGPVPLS
Experimental: as §4

human SLITRK6 on cells [32] = target: T1, human SLITRK6 on cells; assay: flow cytometry on KYSE-30 cells, PE-conjugated anti-human Fc
Experimental: as §3

human SLITRK6 on cells [33] = target: T1, human SLITRK6 on cells; assay: flow cytometry on KYSE-410 cells, PE-conjugated anti-human Fc
Experimental: as §3

B1: Sirtratumab (antibody, V domains shown)
VH: QVQLVESGGGVVQPGRSLRLSCAASGFTFSSYGMHWVRQAPGKGLEWVAVIWYDGSNQYYADSVKGRFTISRDNSKNTLFLQMHSLRAEDTAVYYCARGLTSGRYGMDWGQGTTVTVSS
VL: DIVMTQSPLSLPVTPGEPASISCRSSQSLLLSHGFNYLDWYLQKPGQSPQLLIYLGSSRASGVPDRFSGSGSGTDFTLKISRVEAEDVGLYYCMQPLQIPWTFGQGTKVEIK
notes: Prior-art benchmark antibody; also called Sirtratuzumab
Human SLITRK6 on cells [1]
  EC50: 1.41 nM
[2]
  epitope binning signal: 0.0645
Human SLITRK6 on cells [3]
  EC50: 0.2 nM
Human SLITRK6 on cells [4]
  EC50 (read off the curve): ~0.2 nM
Human SLITRK6 on cells [5]
  EC50: 0.25 nM
Mouse SLITRK6
  Kd: 3.5 nM
[6]
  Kd: 0.35 nM
Rat SLITRK6 [7]
  Kd: 1.5 nM
[8]
  Kd: 1.2 nM
Human SLITRK6 on cells [9]
  EC50 (read off the curve): ~0.2 nM
Human SLITRK6 on cells [10]
  EC50 (read off the curve): ~0.3 nM
[11]
  EC50: 0.06 nM
Rat SLITRK6 [12]
  EC50: 0.88 nM
[13]
  EC50: 0.06 nM
Human SLITRK6 on cells [14]
  EC50 (read off the curve): ~0.1 nM
[15]
  epitope binning signal: 0.282
Human SLITRK6 on cells [16]
  EC50: 0.33 nM
[17]
  Kd: 5 nM
  koff: 0.00416 s⁻¹
  kon: 831000 M⁻¹ s⁻¹
[18]
  Kd: 6.01 nM
  koff: 0.0037 s⁻¹
  kon: 615000 M⁻¹ s⁻¹
[19]
  epitope binning signal: 0.252
Human SLITRK6 on cells [20]
  EC50 (read off the curve): ~0.3 nM
Human SLITRK6 on cells [21]
  EC50: 1.41 nM
[22]
  epitope binning signal: 0.281
Human SLITRK6 on cells [23]
  EC50: 0.39 nM
Human SLITRK6 on cells [24]
  EC50 (read off the curve): ~1 nM
Human SLITRK6 on cells [25]
  EC50: 0.21 nM
[26]
  epitope binning signal: 0.244
Human SLITRK6 on cells [27]
  EC50: 0.26 nM
Human SLITRK6 on cells [28]
  EC50: 0.2 nM
[29]
  epitope binning signal: 0.256

B2: hu1H2-03 with a LALA mutation (hu1H2-03-LALA) (antibody, V domains shown)
VH: EVQLVESGGGLVQPGGSLRLSCAASGFTFSDYGLHWVRQAPGKGLEWVSYISSGSSTVYFADTLKGRFTISRDNAKNSLYLQMNSLRAEDTAVYYCTRGTWYFDVWGRGTLVTVSS
VL: DIQMTQSPSSLSASVGDRVTITCRTSENIHSYLAWYQQKPGKSPQLLVYNAKTLADGVPSRFSGSGSGTDYTLTISSLQPEDFGTFYCQHFWTTSRTFGGGTKVEIK
Human SLITRK6 on cells [4]
  EC50 (read off the curve): ~0.3 nM
Mouse SLITRK6
  Kd: 0.59 nM
[6]
  Kd: 0.14 nM
[8]
  Kd: 0.25 nM
Human SLITRK6 on cells [9]
  EC50 (read off the curve): ~0.2 nM
Human SLITRK6 on cells [10]
  EC50 (read off the curve): ~0.3 nM
Human SLITRK6 on cells [30]
  EC50 (read off the curve): ~0.2 nM
Human SLITRK6 on cells [14]
  EC50 (read off the curve): ~0.2 nM
Human SLITRK6 on cells [20]
  EC50 (read off the curve): ~0.3 nM
Rat SLITRK6 [31]
  binding result: no binding
Human SLITRK1
  binding result: no binding
Human SLITRK4
  binding result: no binding
Human SLITRK6 on cells [24]
  EC50 (read off the curve): ~0.9 nM
Human SLITRK6 on cells [32]
  EC50 (read off the curve): ~0.2 nM
Human SLITRK6 on cells [33]
  EC50 (read off the curve): ~0.2 nM

B3: hu1H2-03-LD038 (antibody, V domains shown)
VH: EVQLVESGGGLVQPGGSLRLSCAASGFTFSDYGLHWVRQAPGKGLEWVSYISSGSSTVYFADTLKGRFTISRDNAKNSLYLQMNSLRAEDTAVYYCTRGTWYFDVWGRGTLVTVSS
VL: DIQMTQSPSSLSASVGDRVTITCRTSENIHSYLAWYQQKPGKSPQLLVYNAKTLADGVPSRFSGSGSGTDYTLTISSLQPEDFGTFYCQHFWTTSRTFGGGTKVEIK
modifications: drug-linker LD038 conjugated to the antibody; positions not given
notes: also called hu1H2-03-LALA-LD038; hu1H2-03-LD038 (8)
Human SLITRK6 on cells [4]
  EC50 (read off the curve): ~0.4 nM
Mouse SLITRK6
  Kd: 0.61 nM
[6]
  Kd: 0.08 nM
[8]
  Kd: 0.21 nM
Human SLITRK6 on cells [9]
  EC50 (read off the curve): ~0.3 nM
Human SLITRK6 on cells [30]
  EC50 (read off the curve): ~0.2 nM
Human SLITRK6 on cells [14]
  EC50 (read off the curve): ~0.2 nM
Rat SLITRK6 [31]
  binding result: no binding
Human SLITRK1
  binding result: no binding
Human SLITRK4
  binding result: no binding
Human SLITRK6 on cells [24]
  EC50 (read off the curve): ~1 nM
Human SLITRK6 on cells [32]
  EC50 (read off the curve): ~0.3 nM
Human SLITRK6 on cells [33]
  EC50 (read off the curve): ~0.2 nM
